Key:
Rv2466c = Rv2466c (UniProt O53193); test: EMSA; conditions: binding buffer and pH not stated ([…]
[1] = molecular target: T1, Rv3852 (Mycobacterium tuberculosis H37Rv) (UniProt I6YHB0); test: EMSA; conditions: binding buffer and pH not stated ([…]
T1 sequence: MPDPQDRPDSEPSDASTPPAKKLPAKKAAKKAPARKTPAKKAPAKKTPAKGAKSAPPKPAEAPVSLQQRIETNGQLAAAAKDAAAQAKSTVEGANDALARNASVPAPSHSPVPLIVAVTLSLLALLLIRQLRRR

Sequence of Rv2466c (O53193 whole entry): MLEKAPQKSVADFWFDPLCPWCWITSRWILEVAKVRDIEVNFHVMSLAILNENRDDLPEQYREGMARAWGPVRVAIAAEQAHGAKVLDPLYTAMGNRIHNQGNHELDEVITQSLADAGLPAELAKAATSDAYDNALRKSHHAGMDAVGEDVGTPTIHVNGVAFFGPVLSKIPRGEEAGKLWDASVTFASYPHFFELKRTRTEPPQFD

For “AATTCCGGCGCCTTCCCGGGCCGGAAGCCGGGCAGCCGCACCTGTTTGGCCAGCTCTTTGTAGGCCCGCTGGAAATCCGGCTCAAGCTCGGCGAATGGCACCTCCACGTTGATACGAACCCGGGTGGGGCTCAACTGCTCGACGGTGCTCTTCACGGGTGTGCTCCTTGGTAGTCGATAACGGCGGTCGGCTGGTCGGGGTGACAGGATTTGAACCTGCGGCCTTCCGCTCCCAAAGCGGATGCGCTACCAAGCTGCGCTACACCCCGCGCTGACCTCGCGATCCTACG / AATTCGTAGGATCGCGAGGTCAGCGCGGGGTGTAGCGCAGCTTGGTAGCGCATCCGCTTTGGGAGCGGAAGGCCGCAGGTTCAAATCCTGTCACCCCGACCAGCCGACCGCCGTTATCGACTACCAAGGAGCACACCCGTGAAGAGCACCGTCGAGCAGTTGAGCCCCACCCGGGTTCGTATCAACGTGGAGGTGCCATTCGCCGAGCTTGAGCCGGATTTCCAGCGGGCCTACAAAGAGCTGGCCAAACAGGTGCGGCTGCCCGGCTTCCGGCCCGGGAAGGCGCCGG [proU2]”, the binding (Rv2466c) was “no binding” and the binding [1] was “binds”.

— paper PMC4433263, “Identification of Rv3852 as an Agrimophol-Binding Protein in Mycobacterium tuberculosis” (PLoS ONE, 2015)
